These results are taken from article doi:10.1101/296376 (bioRxiv, 2018).

The target in this assay is Miro1-ABC (aa 1-592), C-terminal 6xHis-tag (human, UniProt Q8IXI2 1-592). The assay can be described thus: pull-down.
Chain of Miro1-ABC (aa 1-592), C-terminal 6xHis-tag (Q8IXI2 1-592): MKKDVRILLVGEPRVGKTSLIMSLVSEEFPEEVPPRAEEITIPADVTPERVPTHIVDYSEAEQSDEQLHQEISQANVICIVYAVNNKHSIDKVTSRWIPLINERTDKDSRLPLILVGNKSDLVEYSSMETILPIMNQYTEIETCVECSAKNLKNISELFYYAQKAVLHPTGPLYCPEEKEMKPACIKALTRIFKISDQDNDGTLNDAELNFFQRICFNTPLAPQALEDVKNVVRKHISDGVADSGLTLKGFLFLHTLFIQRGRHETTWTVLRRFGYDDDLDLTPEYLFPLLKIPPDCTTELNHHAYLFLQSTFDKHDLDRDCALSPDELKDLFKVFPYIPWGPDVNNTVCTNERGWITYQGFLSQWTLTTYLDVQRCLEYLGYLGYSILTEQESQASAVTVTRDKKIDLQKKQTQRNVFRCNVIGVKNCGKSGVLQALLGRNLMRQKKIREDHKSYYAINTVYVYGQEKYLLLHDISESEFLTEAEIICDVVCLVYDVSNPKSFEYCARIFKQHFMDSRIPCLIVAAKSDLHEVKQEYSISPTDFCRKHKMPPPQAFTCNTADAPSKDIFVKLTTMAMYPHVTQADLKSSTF

B1: Myo19 C-tail (aa 898-970)-FLAG (domain or fragment)
chain: not shown
Turning to B1, the binding result was “binds”.
